Data: US20230069996A1

Experiments:
[1] = biological target: IL-22 receptors on COLO205 cells (UniProt Q8N6P7)
[2] = biological target: IL-22 receptors on COLO205 cells (UniProt Q8N6P7); remark: listed apart in the source

Chain of IL-22 receptors on COLO205 cells (Q8N6P7 16-574 limits assumed, chain 1 of 2): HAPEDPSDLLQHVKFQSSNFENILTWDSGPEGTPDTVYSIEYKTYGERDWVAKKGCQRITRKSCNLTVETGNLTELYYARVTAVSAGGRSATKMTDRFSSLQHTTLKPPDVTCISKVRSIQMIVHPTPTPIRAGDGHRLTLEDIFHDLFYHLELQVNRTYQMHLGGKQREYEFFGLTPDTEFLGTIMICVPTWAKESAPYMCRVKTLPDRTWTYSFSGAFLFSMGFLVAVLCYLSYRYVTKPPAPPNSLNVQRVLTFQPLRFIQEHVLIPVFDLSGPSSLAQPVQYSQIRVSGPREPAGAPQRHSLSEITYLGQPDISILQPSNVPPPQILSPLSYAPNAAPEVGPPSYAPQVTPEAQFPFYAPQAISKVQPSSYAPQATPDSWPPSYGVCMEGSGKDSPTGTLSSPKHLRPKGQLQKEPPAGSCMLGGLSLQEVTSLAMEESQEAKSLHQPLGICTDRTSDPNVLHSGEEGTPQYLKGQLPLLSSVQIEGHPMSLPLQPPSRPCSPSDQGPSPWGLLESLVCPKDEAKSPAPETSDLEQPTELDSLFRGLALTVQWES
Chain of IL-22 receptors on COLO205 cells (Q08334 20-325 limits assumed, chain 2 of 2, further chain): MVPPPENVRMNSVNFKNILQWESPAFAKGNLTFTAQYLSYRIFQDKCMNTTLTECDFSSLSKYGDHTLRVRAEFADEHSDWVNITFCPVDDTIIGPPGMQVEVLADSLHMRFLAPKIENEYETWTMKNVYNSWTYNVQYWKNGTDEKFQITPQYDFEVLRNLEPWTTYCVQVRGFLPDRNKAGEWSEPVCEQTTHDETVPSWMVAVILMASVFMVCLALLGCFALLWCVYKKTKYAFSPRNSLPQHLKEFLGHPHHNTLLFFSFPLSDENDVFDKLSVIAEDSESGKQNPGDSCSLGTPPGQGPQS

“human IL-22 (from UniProt Q9GZX6) (ligand)” gave an EC50 (read off the curve) of IL-10 secretion by COLO205 cells, human IL-22 incubated with uPA [1] of 0.05 nM and an EC50 (read off the curve) of IL-10 secretion by COLO205 cells, human IL-22 without uPA [2] of 0.08 nM.
